Laboratory results: patent US20260284241A1, “DOSAGE REGIMEN FOR SHORT-LIVED RADIOISOTOPE” (AdvanCell Pty Limited, priority 2023, published 2026)

System: metastatic castration-resistant prostate cancer
Assay: 212Pb SPECT/CT imaging (biodistribution) in a patient with metastatic castration-resistant prostate cancer
Format: in vivo, human
Conditions: 60 MBq
Experimental: To gauge the biodistribution and inform patient tolerability of a ^212Pb radiopharmaceutical comprising an acetamide-based chelator, 60 MBq of ^212Pb-ADVC001 was administered to a person with metastatic castration-resistant prostate cancer. SPECT/CT imaging was performed at 1.5, 5, 20, and 28 h following infusion. […] FIG. 3B depicts sagittal and coronal images at 1.5 h after injection (p.i.). Further details are published in Griffths et al., Journal of Nuclear Medicine, 2024, 65 (7), the entire contents of which are hereby incorporated herein by reference.

HO-Glu-CO-Lys[SubA-D-Lys-D-Phe-D-Tyr(3I)-(Pent-^212Pb-DO3AM)]-OH [^212Pb-ADVC001]
kidney clearance (patient with mCRPC, SPECT/CT (FIG. 3A)): rapid kidney clearance
tumour uptake on 212Pb SPECT/CT images (person with mCRPC, SPECT/CT at 1.5, 5, 20 and 28 h following infusion): rapid tumour uptake
